According to paper PMC3903573, “Effects of an Anticarcinogenic Bowman-Birk Protease Inhibitor on Purified 20S Proteasome and MCF-7 Breast Cancer Cells” (PLoS ONE, 2014):

What was measured:
[1] = molecular target: the molecule itself; assay: dynamic light scattering; BTCI alone, 15 µM, pH 7.5; hydrodynamic diameter 4.5 nm
[2] = molecular target: 20S proteasome purified from horse erythrocytes (horse); assay: enzyme inhibition assay (fluorogenic substrates, Morrison equation); 20S proteasome 2.0 µg/mL with BTCI 2.0 to 30.0 µg/mL and 62.5 µg/mL fluorogenic substrate; 20.0 mM Tris-HCl pH 7.5, 1.0 mM EDTA, 1.0 mM NaN3, 1.0 mM DTT; room temperature, 60 min; Ki fitted with GRAFIT; conditions: both partners purified

- KI or Kd, caspase-like site [2]: 1400 nM
- KI or Kd, chymotrypsin-like site [2]: 700 nM
- KI or Kd, trypsin-like site [2]: 100 nM
B1: Black-eyed pea Trypsin/Chymotrypsin Inhibitor (natural protein, Vigna unguiculata (Cowpea), UniProt P17734 1-83, looked up)
chain: SGHHXXSTXXASXSSKPCCRXCACTKSIPPXCRCSXVRLNSCHSACKSCACTFSIPAXCFCGXIXXFCYKPCKSSHSXXXXWN
modifications: X not resolved here
notes: 83 amino acid residues, seven disulfide bonds, 9.1 kDa; reactive sites Lys26 (trypsin) and Phe53 (chymotrypsin); By DLS a trimer at 15 µM and pH 7.5; also called BTCI; source: isolated from Vigna unguiculata (Cowpea) seeds, purified as previously described [29]
- stoichiometry N [1]: 3
